Tests used:
[1] = target: MDL1-6xHis (Arabidopsis thaliana MIF/D-DT-like protein 1, hexahistidine-tagged) (Arabidopsis thaliana); assay: SEC
[2] = target: MIF-6xHis (human macrophage migration inhibitory factor, hexahistidine-tagged) (human) (UniProt P14174); assay: SEC
[3] = target: MDL1-6xHis (Arabidopsis thaliana MIF/D-DT-like protein 1, hexahistidine-tagged) (Arabidopsis thaliana); assay: crystal structure
[4] = target: RED-NHS-MIF-6xHis (human MIF-6xHis labelled with the RED-NHS dye) (human) (UniProt P14174); assay: MST
Chain of RED-NHS-MIF-6xHis (human MIF-6xHis labelled with the RED-NHS dye) (human) (P14174 2-115): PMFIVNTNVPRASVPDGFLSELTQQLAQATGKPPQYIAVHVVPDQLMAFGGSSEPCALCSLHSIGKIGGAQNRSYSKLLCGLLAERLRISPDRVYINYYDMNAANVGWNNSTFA

Chain of MIF-6xHis (human macrophage migration inhibitory factor, hexahistidine-tagged) (human) (P14174 2-115): as above

stoichiometry N [1]: 3
fraction of the mixture in the hetero-hexamer [2]: 0.33
stoichiometry N [3]: 3
Kd [4]: < 5 µM
Substance: MDL1-6xHis (Arabidopsis thaliana MIF/D-DT-like protein 1, hexahistidine-tagged) (natural protein)

Source: publication doi:10.1101/2023.01.30.525655
